From patent US20050265995A1 (MUSC FOUNDATION FOR RESEARCH DEVELOPMENT, published 2005)

Target: T1, dipeptidylpeptidase IV (DPPIV) expressed on rat proximal tubular epithelial cells (PTEC) (rat, UniProt P14740 1-767)
T1 construct: whole, on cells; also called K9/9 antigen; glycoprotein expressed on rat glomerular epithelial cells and PTEC
Assay: in vivo biodistribution of 125I-labelled protein in rats, 48 h after tail vein injection
Description: Biodistribution studies were performed using standard procedures for determining tissue distribution of injected radiolabeled proteins (41, 33). […] After 48 h, a blood sample was taken, and major organs were removed, shredded, washed in PBS containing 10 mM EDTA, weighed, and counted. Targeting specificity was determined as percentage of cpm per gram of tissue divided by total injected cpm per gram of body weight.

T1 sequence (P14740 whole entry): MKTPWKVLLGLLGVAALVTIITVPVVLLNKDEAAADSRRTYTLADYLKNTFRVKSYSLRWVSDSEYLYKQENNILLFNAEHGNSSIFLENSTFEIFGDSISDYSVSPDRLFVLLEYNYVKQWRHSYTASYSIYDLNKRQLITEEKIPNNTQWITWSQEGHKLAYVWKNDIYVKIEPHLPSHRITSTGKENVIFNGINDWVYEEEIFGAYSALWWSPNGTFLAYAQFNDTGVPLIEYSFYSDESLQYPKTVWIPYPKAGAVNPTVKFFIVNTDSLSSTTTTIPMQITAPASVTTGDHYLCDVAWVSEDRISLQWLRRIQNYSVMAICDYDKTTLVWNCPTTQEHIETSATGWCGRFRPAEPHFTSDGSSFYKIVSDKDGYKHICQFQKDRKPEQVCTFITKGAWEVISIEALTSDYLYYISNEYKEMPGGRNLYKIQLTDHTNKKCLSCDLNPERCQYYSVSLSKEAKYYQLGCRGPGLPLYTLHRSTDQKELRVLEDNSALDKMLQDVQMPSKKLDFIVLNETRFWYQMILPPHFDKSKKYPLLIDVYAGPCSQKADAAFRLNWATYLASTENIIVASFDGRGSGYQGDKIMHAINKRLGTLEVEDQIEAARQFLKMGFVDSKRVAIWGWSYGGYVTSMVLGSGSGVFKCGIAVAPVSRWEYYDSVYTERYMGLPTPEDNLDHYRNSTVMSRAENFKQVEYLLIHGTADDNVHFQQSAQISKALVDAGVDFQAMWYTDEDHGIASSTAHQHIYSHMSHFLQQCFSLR

binding result: no binding
B1: soluble untargeted Crry (sCrry) (other, rat, UniProt Q63135 36-482, looked up)
chain: GQCPAPPLFPYAKPINPTDESTFPVGTSLKYECRPGYIKRQFSITCEVNSVWTSPQDVCIRKQCETPLDPQNGIVHVNTDIRFGSSITYTCNEGYRLIGSSSAMCIISDQSVAWDAEAPICESIPCEIPPSIPNGDFFSPNREDFHYGMVVTYQCNTDARGKKLFNLVGEPSIHCTSIDGQVGVWSGPPPQCIELNKCTPPHVENAVIVSKNKSLFSLRDMVEFRCQDGFMMKGDSSVYCRSLNRWEPQLPSCFKVKSCGAFLGELPNGHVFVPQNLQLGAKVTFVCNTGYQLKGNSSSHCVLDGVESIWNSSVPVCEQVICKLPQDMSGFQKGLQMKKDYYYGDNVALECEDGYTLEGSSQSQCQSDASWDPPLPKCVSQVICKLPQDMSGFQKGLQMKKDYYYGDNVALECEDGYTLEGSSQSQCQSDASWDPPLPKCVSRSNSG
modifications: 125I-iodinated in the biodistribution study
notes: extracellular domain; Untargeted control, expressed in Pichia; also called soluble Crry
